Results: article PMC4066659

Target: assembled microtubules
Assay: co-sedimentation

His6-Eg5[Ser1033Asp] (baculovirus) (from UniProt P52732 1-1056) (natural protein)
percent of wildtype Eg5 recovered in the microtubule pellet: 42%

His6-Eg5[Thr926Ala] (baculovirus) (from UniProt P52732 1-1056) (natural protein)
percent of wildtype Eg5 recovered in the microtubule pellet: 28%
